The target in this assay is extracellular domain (ECD) of recombinant human Sortilin with a C-terminal HIS tag (ECD-huSortilin-HIS) (UniProt Q99523 78-755). The experiment in a line: ELISA.

For one molecule, EC50 results are on record in patent publication US20230348588A1 (published 2023).

Broadly, the EC50 is the midpoint of the concentration-response curve.

Sequence of extracellular domain (ECD) of recombinant human Sortilin with a C-terminal HIS tag (ECD-huSortilin-HIS) (Q99523 78-755): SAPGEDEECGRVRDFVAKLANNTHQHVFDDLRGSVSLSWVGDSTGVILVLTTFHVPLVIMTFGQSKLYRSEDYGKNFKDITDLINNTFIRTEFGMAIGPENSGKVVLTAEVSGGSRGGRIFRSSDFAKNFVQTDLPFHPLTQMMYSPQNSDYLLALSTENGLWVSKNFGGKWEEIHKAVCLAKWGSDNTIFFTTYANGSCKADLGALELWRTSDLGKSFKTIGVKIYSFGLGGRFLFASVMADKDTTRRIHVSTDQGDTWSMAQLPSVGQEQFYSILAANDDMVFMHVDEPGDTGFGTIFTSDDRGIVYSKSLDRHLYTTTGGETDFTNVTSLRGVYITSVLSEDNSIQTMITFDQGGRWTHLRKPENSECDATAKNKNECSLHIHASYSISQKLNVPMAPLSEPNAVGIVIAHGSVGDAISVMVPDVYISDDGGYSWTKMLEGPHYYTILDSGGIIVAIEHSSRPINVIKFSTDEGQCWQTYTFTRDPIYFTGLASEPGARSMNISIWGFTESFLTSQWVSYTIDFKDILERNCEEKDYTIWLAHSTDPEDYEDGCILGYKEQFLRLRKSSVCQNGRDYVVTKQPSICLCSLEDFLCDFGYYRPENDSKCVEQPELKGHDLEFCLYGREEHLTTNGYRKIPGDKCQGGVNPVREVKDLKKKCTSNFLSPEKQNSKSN

B1: mouse monoclonal antibody 4N2 (antibody, V domains shown)
VH: EVKLVESGGGLVKPGGSLKLSCGASGFTFSNYVMSWVRQTPERRLEWVATISGGGRYSYYPDSVKGRFTISRDNAKNNLYLQMSSLRSEDTALYYCGRQDDYDSFPYCGQGTLVTVSV
VL: DILLTQSPAILSVSLGERVSFSCRASQSIGTSIHWFQLRTNGSPRLLIKYASEPISGIPSRFSGSGSGTDFTLSINSVESEDIADYFCQQSKSWPITFGTGTKLELK
B1: the EC50 was found to be 5.8 nM.
